Test results reported in paper PMC3193175.

Target: split SUMO-modified PCNA (N-fragment and ^SUMOC-fragment self-assembled) (yeast) (UniProt P15873)
Test: SEC

Work on “split SUMO-modified PCNA (N-fragment and ^SUMOC-fragment self-assembled) (from UniProt P15873 1-163; P15873 165-258) (complex)” yielded a stoichiometry N of 3.
